Paper PMC9886983, “Mechanism of regulation of the Helicobacter pylori Cagβ ATPase by CagZ” (Nature Communications, 2023)

T1: Cagβ2 (residues 243-748) (Helicobacter pylori 26695, UniProt O25260 243-748)
T1 construct: Cagβ (HP0524, Cag5) of Helicobacter pylori 26695, residues 243-748; also called Cagβ2 (243-748); source: E. coli BL21 star (DE3), purified (Ni-NTA, TEV, second Ni-NTA, SEC); not shown: His6, N-terminal, cleaved; TrxA, N-terminal, cleaved
T1 sequence: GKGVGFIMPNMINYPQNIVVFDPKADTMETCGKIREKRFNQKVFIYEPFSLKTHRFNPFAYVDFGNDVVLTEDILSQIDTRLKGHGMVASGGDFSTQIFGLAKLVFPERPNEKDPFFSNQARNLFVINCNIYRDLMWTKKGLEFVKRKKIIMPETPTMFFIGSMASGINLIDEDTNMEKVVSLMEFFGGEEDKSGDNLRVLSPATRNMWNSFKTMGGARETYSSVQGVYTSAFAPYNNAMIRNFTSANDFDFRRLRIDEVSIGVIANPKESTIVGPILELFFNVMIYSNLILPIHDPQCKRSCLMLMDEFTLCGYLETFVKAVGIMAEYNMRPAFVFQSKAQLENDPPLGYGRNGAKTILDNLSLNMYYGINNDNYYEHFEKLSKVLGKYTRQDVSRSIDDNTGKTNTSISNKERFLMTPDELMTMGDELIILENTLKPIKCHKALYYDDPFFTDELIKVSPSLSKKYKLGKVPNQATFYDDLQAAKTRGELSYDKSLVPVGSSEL

T2: Cagβ1 (soluble region of Cagβ, residues 166-748) (Helicobacter pylori 26695, UniProt O25260 166-748)
T2 construct: Cagβ (HP0524, Cag5; VirD4 homolog) of Helicobacter pylori 26695, residues 166-748, soluble region without the transmembrane region; also called Cagβ1(166-748); Cagβ-WT; source: E. coli BL21 star (DE3), purified (Ni-NTA, TEV, second Ni-NTA, SEC); not shown: His6, N-terminal, cleaved; TrxA, N-terminal, cleaved
T2 sequence: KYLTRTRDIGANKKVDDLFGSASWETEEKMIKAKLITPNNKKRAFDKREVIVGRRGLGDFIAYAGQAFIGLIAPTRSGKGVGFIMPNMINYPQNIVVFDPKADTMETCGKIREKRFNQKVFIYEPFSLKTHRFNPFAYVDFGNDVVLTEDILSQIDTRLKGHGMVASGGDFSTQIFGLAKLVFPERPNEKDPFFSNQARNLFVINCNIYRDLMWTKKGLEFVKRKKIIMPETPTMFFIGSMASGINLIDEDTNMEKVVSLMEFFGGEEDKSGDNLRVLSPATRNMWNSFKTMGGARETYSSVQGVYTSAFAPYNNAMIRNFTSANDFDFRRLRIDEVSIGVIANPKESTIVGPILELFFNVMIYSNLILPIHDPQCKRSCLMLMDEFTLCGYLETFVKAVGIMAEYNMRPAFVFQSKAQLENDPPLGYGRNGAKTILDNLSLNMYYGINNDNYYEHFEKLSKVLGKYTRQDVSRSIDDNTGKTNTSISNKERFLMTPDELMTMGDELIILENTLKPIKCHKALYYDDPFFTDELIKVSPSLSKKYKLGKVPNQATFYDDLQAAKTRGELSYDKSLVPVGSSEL

T3: Cagβ-AAD2 (residues 289-505) (Helicobacter pylori 26695, UniProt O25260 289-505)
T3 construct: Cagβ (HP0524, Cag5) of Helicobacter pylori 26695, residues 289-505, holds the all-alpha domain (AAD); also called Cagβ-AAD2 (289-505); source: E. coli BL21 star (DE3), purified (Ni-NTA, TEV, second Ni-NTA, SEC); not shown: His6, N-terminal, cleaved; TrxA, N-terminal, cleaved
T3 sequence: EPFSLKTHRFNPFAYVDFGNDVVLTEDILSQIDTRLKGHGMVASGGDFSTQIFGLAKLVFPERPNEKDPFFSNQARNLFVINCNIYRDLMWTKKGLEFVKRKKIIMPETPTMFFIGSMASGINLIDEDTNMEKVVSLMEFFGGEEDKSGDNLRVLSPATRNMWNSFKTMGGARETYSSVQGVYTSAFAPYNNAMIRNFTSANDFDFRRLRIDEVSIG

T4: Cagβ-AAD1 (residues 289-488) E396A (Helicobacter pylori 26695, UniProt O25260 289-488, E396A)
T4 construct: Cagβ (HP0524, Cag5) of Helicobacter pylori 26695, residues 289-488, with E396A; also called Cagβ-AAD1_E396A; source: E. coli BL21 star (DE3), purified as the wild type but without TEV protease treatment; not shown: His6, N-terminal, kept; TrxA, N-terminal, kept
T4 sequence: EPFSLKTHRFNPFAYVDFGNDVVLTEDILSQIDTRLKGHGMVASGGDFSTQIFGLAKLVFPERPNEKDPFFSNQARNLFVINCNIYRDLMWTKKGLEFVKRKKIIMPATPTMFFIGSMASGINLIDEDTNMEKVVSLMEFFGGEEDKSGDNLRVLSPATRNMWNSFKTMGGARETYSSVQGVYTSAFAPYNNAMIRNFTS

B1: Cagβ1 (soluble region of Cagβ, residues 166–748) (domain or fragment)
chain: T2 sequence
notes: Cagβ (HP0524, Cag5; VirD4 homolog) of H. pylori 26695, residues 166-748, the soluble (cytosolic) region; Dynamic hexamer; monomer at low concentration; also called apo-Cagβ1; HP0524; source: E. coli BL21 star (DE3), purified (Ni-NTA, TEV cleavage, second Ni-NTA, SEC); also co-expressed with CagZ-pET-28a and co-purified; not shown: His6, N-terminal, cleaved; TrxA, N-terminal, cleaved
B2: CagZ (residues 2-199), wild type (natural protein)
chain: ELGFNETERQKILDSNKSLMGNANEVRDKFIQNYASSLKDSNDPQDFLRRVQELRINMQKNFISFDVYYNYLNNLVLASYNRCKQEKTFAESTIKNELTLGEFVAEISDNFNNFMCDEVARISDLVASYLPREYLPPFIDGNMMGVAFQILGIDDFGRKLNEIVQDIGTKYIILSKNKTYLTSLERAKLITQLKLNLE
notes: CagZ of Helicobacter pylori 26695, residues 2-199; also called CagZ-WT; source: E. coli BL21 star (DE3), purified (Ni-NTA, TEV, second Ni-NTA, SEC); not shown: His6, N-terminal, cleaved; TrxA, N-terminal, cleaved

What was measured:
[1] = molecular target: the molecule itself; assay: crystal structure; apo-Cagβ1, 2.8 Å; crystals from 35% PEG400, 0.2 M Li2SO4, 0.1 M Tris 8.5 at 285 K; six protomers in the asymmetric unit
[2] = molecular target: T1, Cagβ2 (residues 243-748); assay: ITC; ITC-200, 25 °C, 20 mM Tris pH 8.0, 150 mM NaCl; Cagβ proteins (20 µM) in the cell, CagZ proteins (200 µM) in the syringe; conditions: both partners purified
[3] = molecular target: T2, Cagβ1 (soluble region of Cagβ, residues …); assay: as above; conditions: both partners purified
[4] = molecular target: T3, Cagβ-AAD2 (residues 289-505); assay: as above; conditions: both partners purified
[5] = molecular target: T4, Cagβ-AAD1 (residues 289-488) E396A; assay: as above; conditions: both partners purified

| Binder | stoichiometry N [1] | Kd [2] [nM] | Kd [3] [nM] | Kd [4] [nM] | Kd [5] [nM] |
| --- | --- | --- | --- | --- | --- |
| B1 | 6 |  |  |  |  |
| B2 |  | 20 | 50 | 20 | ~50 |
